Source: US20150191542A1 (INNATE PHARMA S A, published 2015)

T1: ULBP2-Fc protein (UniProt Q9BZM5 26-217, limits assumed)
T1 construct: also called ULPB2; not shown: Fc part
T1 sequence (looked up): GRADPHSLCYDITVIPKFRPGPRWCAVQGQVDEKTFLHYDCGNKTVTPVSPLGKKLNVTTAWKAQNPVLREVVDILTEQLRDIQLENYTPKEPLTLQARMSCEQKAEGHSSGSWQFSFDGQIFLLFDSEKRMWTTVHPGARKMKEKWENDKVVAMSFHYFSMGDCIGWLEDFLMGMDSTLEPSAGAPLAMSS

T2: ULBP1-Fc protein (UniProt Q9BZM6 26-216, limits assumed)
T2 construct: also called ULPB1; not shown: Fc part
T2 sequence (looked up): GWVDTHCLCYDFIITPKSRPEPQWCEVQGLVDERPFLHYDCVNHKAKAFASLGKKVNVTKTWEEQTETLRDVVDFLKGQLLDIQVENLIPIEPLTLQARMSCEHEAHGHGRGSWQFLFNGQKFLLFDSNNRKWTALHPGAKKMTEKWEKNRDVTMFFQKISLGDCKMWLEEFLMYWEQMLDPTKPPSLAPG

T3: MICA*004 expressed on C1R transfectant cells (human, UniProt Q29983 24-297, Glycosylated on cells; the letters do not carry this.)
T3 construct: also called C1R-MICA*004; C1R-MICA*04
T3 chain: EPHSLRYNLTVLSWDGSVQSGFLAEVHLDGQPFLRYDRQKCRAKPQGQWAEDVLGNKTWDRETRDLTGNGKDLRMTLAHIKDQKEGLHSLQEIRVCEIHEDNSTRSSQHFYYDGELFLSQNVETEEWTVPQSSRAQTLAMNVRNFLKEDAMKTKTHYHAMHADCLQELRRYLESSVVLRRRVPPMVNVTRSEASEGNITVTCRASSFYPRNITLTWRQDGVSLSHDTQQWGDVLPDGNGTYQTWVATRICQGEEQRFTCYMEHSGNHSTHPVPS

T4: MICA*008 expressed on C1R transfectant cells (human, UniProt Q29983 24-297, Glycosylated on cells; the letters do not carry this.)
T4 construct: also called C1R-MICA*008; C1R-MICA*08
T4 chain: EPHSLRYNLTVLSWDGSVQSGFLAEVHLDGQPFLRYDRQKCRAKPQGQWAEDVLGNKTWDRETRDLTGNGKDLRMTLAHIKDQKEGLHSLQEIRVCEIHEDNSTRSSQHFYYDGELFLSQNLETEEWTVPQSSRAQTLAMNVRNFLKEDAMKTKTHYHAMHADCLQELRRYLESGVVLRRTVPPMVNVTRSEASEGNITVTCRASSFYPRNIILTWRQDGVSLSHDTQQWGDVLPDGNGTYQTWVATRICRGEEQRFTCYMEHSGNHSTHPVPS

T5: recombinant human MICA extracellular domain recombinant-Fc protein (MICA*019 allele) (human, UniProt Q29983 24-297)
T5 construct: Bought from R&D Systems; also called MICA*019-Fc; MICA-Fc; not shown: Fc part of the bought fusion protein (R&D Systems)
T5 chain: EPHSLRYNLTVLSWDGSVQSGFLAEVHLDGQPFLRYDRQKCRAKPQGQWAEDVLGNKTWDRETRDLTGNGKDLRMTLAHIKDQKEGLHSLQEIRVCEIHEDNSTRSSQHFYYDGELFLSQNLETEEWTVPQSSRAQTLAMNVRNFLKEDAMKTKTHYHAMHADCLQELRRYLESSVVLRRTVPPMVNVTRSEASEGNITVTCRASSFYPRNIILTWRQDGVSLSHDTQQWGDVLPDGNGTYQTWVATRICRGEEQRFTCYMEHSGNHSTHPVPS

B1: antibody 9C10 (antibody, V domains shown)
VH: QVQLQQPGAELVRPGTSVNLSCKASGYSFTRYWMNWVKQRPGQGLEWIGMIHPSDSETRLNQKFKDKATLTVDKSSSTAYMQLSSPTSEDSAVYYCGYGNFFYVMDYWGQGTSVTVSS
VL: DILLTQSPAILSVSPGERVSFSCRASQSIGTSIHWYQQRTNGSPRLLIKFASESISGIPSRFSGSGSGTDFTLNINSVESEDIADYYCQQSNFWPFTFGSGTKLEVK
modifications: Biotinylated when captured in the SPR assays (9C10-Biot); the sites are not given.
notes: Murine hybridoma antibody of IgG2b isotype as tested; also called 9C10-Biot
B2: antibody 16A8 (antibody, V domains shown)
VH: EVQLVESGGGLVKPGGSLKLSCAASGFTFSRYAMSWVRQTPEKRLEWVATIFSGGSYTYYPDSVKGRFTISRDNANNTLYLQMSSLKAEDTAMYFCARPNWERTFDYWGQGTTLTVSS
VL: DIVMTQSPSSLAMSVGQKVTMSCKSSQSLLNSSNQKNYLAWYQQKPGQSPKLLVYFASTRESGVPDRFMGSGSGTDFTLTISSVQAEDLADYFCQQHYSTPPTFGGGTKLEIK
notes: Murine hybridoma antibody of IgG2a isotype as tested; also called 16A8-Biot

Tests used:
ULBP2-Fc protein = molecular target: T1, ULBP2-Fc protein; assay: SPR Biacore T100, biotinylated antibody captured on CAP chip, Fc protein injected
Experimental: (§1) The binding of 9C10, 20C6 and 16A8 to either recombinant human MICA extracellular domain recombinant protein monomers or dimers (MICA*019 allele-Fc protein or MICA*001-His protein) as well as other NKG2D ligands MICB and ULBP1-2 was analyzed by Surface Plasmon Resonance (SPR) using a Biacore T100 apparatus to obtain monovalent and bivalent affinity, respectively. Biotinylated anti-MICA antibodies were injected at a constant rate of 10 μl/min over the Sensor Chip CAP flow-cells comprising Biotin CAPture Reagent. MICA-Fc or MICA-His protein, MICB-Fc, ULBP1-Fc or ULBP2-Fc protein is then injected successively (range of concentrations between 0.01-100 nM), with regeneration between injections, and in increasing order over two flowcells simultaneously. Curves are fitted using Biacore T100 Evaluation software.
(§2) (a) General Biacore T100 methods. SPR measurements were performed on a Biacore T100 apparatus (Biacore GE Healthcare) at 25° C. In all Biacore experiments HBS-EP+ buffer (Biacore GE Healthcare) or 10 mM sodium acetate pH 7.4, 150 mM NaCl, 0.05% P20 served as running buffer and sensorgrams were analyzed with Biaevaluation 4.1 and Biacore T100 Evaluation software. Recombinant human and mouse TLR3 were purchased from R&D Systems.

ULBP1-Fc protein = molecular target: T2, ULBP1-Fc protein; assay: as above
Experimental: as §1, §2

[1] = molecular target: T3, MICA*004 expressed on C1R transfectant …; assay: flow cytometry, MFI against antibody concentration on C1R-MICA*04 cells
Experimental: (§3) The binding of antibodies obtained from the first and second immunization series (including 9C10, 20C6 and 16A8) were tested for binding to MICA-expressing CR1 transfectant cells C1R-MICA*001, C1R-MICA*004, C1R-MICA*007 and C1R-MICA*008 (Pr. A. Steinle, Eberhard-Karls University Tuebingen, Germany) described in Salih et al. (2003) Blood 102(4): […]. Binding was analyzed by flow cytometry.
(§4) Cells were harvested and stained in PBS 1×/BSA 0,2%/EDTA 2 mM buffer during 30 minutes at 4° C. using a dose-range of the anti-MICA mAbs. After two washes in staining buffer, cells were stained for 30 min at 4° C. with goat anti-mouse (H+L)-PE polyclonal antibodies (1/200). After two washes, stainings were acquired on a BD FACS Canto II and analyzed using the FlowJo software.

[2] = molecular target: T4, MICA*008 expressed on C1R transfectant …; assay: flow cytometry, MFI against antibody concentration on C1R-MICA*08 cells
Experimental: as §3, §4

[3] = molecular target: T5, recombinant human MICA extracellular …; assay: SPR Biacore T100, biotinylated antibody captured on CAP chip, MICA protein injected
Experimental: as §1, §2

Row | Binder | binding result (ULBP2-Fc protein) | binding result (ULBP1-Fc protein) | EC50 (read off the curve) [1] | EC50 (read off the curve) [2] | binding result [3]
1 | B1 | no binding (tested: 0.01-100 nM) | no binding (tested: 0.01-100 nM) | ~0.2 µg/mL | ~0.2 µg/mL | –
2 | B2 | – | – | – | – | binds
